Target: human IL-17A (human) (UniProt Q16552)
Assay: cell-based or functional assay

Chain of human IL-17A (human) (Q16552 20-155 limits assumed): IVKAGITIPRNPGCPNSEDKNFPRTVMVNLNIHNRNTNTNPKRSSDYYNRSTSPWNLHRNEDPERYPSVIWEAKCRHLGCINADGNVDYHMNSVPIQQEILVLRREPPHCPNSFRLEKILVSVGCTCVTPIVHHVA

IC50, IL-17A-dependent IL-6 production, HT1080 cells: 9.2 ng/mL | IC50, dual IL-17A/TNFα-dependent IL-6 production, HT1080 cells: 0.025 nM
Substance: BCD-085 anti-IL-17A monospecific antibody (BIOCAD)
